Laboratory results as given in patent US20080051562.

Legend:
[1] = system: PEG-TMB (TMB conjugated at the C-terminal azido-methionine analog to methyl-PEG-triarylphosphine conjugate 2 by Staudinger ligation)
[2] = system: TMA (truncated human thrombomodulin EGF-like domains 4-6, Met-388-Leu, C-terminal GlyGlyMet linker, expressed as an N-terminal Dsba enzyme fusion with leader sequence)
[3] = system: TMB (truncated human thrombomodulin derivative, EGF-like domains 4-6, Met-388-Leu, C-terminal GlyGlyMet linker with azido-methionine analog)
[4] = molecular target: recombinant human Thrombomodulin (soluble truncated form that lacks the putative transmembrane and the cytoplasmic domains, approximate weight 68 kD; American Diagnostica Inc.) (UniProt P07204)
Sequence of recombinant human Thrombomodulin (soluble truncated form that lacks the putative transmembrane and the cytoplasmic domains, approximate weight 68 kD; American Diagnostica Inc.) (P07204 whole entry, looked up, the tested form may be a part): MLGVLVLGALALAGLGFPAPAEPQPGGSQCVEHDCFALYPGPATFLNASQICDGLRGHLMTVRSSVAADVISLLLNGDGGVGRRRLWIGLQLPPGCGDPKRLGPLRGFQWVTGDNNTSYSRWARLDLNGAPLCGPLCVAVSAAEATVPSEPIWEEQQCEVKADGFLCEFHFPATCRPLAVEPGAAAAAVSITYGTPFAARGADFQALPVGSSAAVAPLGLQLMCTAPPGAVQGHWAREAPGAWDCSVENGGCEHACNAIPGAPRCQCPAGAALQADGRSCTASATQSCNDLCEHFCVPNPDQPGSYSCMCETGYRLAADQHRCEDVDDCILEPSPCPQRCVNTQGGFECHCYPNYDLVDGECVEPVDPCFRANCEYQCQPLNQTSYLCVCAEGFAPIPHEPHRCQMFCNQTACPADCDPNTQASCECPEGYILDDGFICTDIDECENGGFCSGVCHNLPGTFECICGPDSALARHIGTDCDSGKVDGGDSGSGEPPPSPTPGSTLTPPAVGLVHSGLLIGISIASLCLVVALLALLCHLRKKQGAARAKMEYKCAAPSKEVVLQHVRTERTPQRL

For “human alpha thrombin (Haematologic Technologies Inc.)”, the KM (µM) for protein C activation by the TM-thrombin complex [1] was 1 µM, the kcat (min^-1) for protein C activation by the TM-thrombin complex [1] was 0.2 min⁻¹ and the kcat/KM (min^-1 · µM^-1) for protein C activation by the TM-thrombin complex (min^-1 · µM^-1) [1] was 0.2. It also gave a KM (µM) for protein C activation by the TM-thrombin complex [2] of 0.9 µM, a kcat (min^-1) for protein C activation by the TM-thrombin complex [2] of 0.22 min⁻¹ and a kcat/KM (min^-1 · µM^-1) for protein C activation by the TM-thrombin complex (min^-1 · µM^-1) [2] of 0.26. It also gave a KM (µM) for protein C activation by the TM-thrombin complex [3] of 1 µM, a kcat (min^-1) for protein C activation by the TM-thrombin complex [3] of 0.16 min⁻¹ and a kcat/KM (min^-1 · µM^-1) for protein C activation by the TM-thrombin complex (min^-1 · µM^-1) [3] of 0.16. The KM (µM) for protein C activation by the TM-thrombin complex [4] was 0.7 µM, the kcat (min^-1) for protein C activation by the TM-thrombin complex [4] was 0.14 min⁻¹ and the kcat/KM (min^-1 · µM^-1) for protein C activation by the TM-thrombin complex (min^-1 · µM^-1) [4] was 0.21.
